# Test results taken from patent CN114409777A (SHAANXI HISINOVEC SCIENCE AND TECH LIMITED COMPANY, dated 2022).
# T1: 脆弱拟杆菌毒素BFT1全长蛋白(BFT1-sFL)，不含信号肽 (Bacteroides fragilis (产肠毒素脆弱拟杆菌, ETBF), UniProt P54355 26-405)
# T1 construct: domain: 不含信号肽全长 (full length without signal peptide, pro domain kept); Recombinant protein from E. coli; This is not the processed catalytic domain alone: the pro domain is still present; also called BFT重组蛋白; BFT全长
# T1 sequence: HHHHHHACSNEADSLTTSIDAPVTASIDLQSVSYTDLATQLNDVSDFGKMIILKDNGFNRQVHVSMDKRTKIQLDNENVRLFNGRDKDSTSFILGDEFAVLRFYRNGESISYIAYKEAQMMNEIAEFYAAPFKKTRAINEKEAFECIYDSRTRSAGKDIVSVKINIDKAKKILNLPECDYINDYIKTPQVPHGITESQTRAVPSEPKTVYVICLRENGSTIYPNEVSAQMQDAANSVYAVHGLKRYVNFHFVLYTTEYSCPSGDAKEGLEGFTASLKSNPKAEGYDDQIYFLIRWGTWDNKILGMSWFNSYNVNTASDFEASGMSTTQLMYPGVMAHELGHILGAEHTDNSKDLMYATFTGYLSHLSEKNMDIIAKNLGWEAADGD
# Biological target: T1, 脆弱拟杆菌毒素BFT1全长蛋白(BFT1-sFL)，不含信号肽
# Test: ITC (Microcal PEAQ-ITC), 20℃, nanobody about 20 μM, BFT1-sFL about 200 μM, 20mM Tris-HCl pH 8.0, 150mM NaCl, 5% glycerol
binder,measurement,value
"结直肠癌相关的抗脆弱拟杆菌毒素蛋白激活体的特异性纳米抗体Nb3.27 (VHH, also called BFT-211纳米抗体; BFT1-sFL纳米抗体) VHH: QVQLQESGGGLVQAGGSLRLSCTYSGQTFSAWAMGWFRQAPGKERETVATINWNGERTQYADAVKGRFTISRDNAKDTVYLEMNSLKPEDTAVYYCASMMGTYYSGSPKNWGQGTQVTVSS",Kd,15.3 nM
